In US20150351390A1, “COMPOSITIONS AND METHODS FOR AUXIN-ANALOG CONJUGATION” (PIONEER HI-BRED INTERNATIONAL, INC., priority 2012, published 2015):

B1: MtGH3: GH3 protein, accession ABN09059 (protein, listed as Medicago truncatula)
chain: MPTSLDYDLSQKNKKTLDFIEDITTHADEIQKKVLAEILNRNANVEYLQRHGLNGHTDSETFKKLLPIITYEDIQNDINLIANGDTSPILTSNPISNFLTSSGTSGGERKLMPATEEEFGRRYLLYSYLMPIMSQFIPDLEKGKGMYLMFIKNESKTPGGIKASPVLTNYYKSSHFLNRPYDPYTNFTSPNETVLCLDSYQSMYSQLLCGLIQNNEVLRVGAVFASGLIRAIRFLEKNWRLLCNDIRTGTLDLLITDDSVREAVMKILKPNKNLADFVEGECNKGSWQGIITRLWPNTKYVDVIVTGTMSQYIPTLDYYSNGLPLVCTMYASSECYFGVNLNPLSKPCHVSYTLIPTMCYYEFLPVNRSNCEVNGSIPPSTTKSLGEKKYQEVVDLVDVKLGQEYELVVTTYAGLYRYKVGDVLKVTGFKNKAPQFSFVCRKNVVLSIESDKTDEVELQNAMKNAVTHLAPFEADVAEYTSYADTTTIPGHYVLYWELNLKGSTKIPHSVYEDCCLTIEESLNSVYRQGRVSDKSIGPLEIKIVEQGTFDKLMDYAINLGASINQYKTPRCVKFAPMVELLESRVMAKYFSPKCPKWVPGHKKWNNE
B2: PiGH3-16: GH3 protein, accession CAJ14972 (protein)
chain: MPQAKREEGIESVQESIIIATTERNRKALDFIEHATIHAAEVQAEVLLEILTRNAYTEYLERYQLTGRTDRKSFKERLPVITYEDLQPEILRIANGDMSPILSAHPISEFLTSSGTSAGERKIMPTIHEELKRRTLLYSLLMPVMNQYMKGLDKGKGMYFLFVKSETRTPGGLLARPVLTSYYKSQDFIERPYDPYNVYTSPMEAILCSDSYQSMYCQLLCGLAQNHEVLRVGAVFASGLLRAIRFLEEHWQSLCQDIRSGTVNDEEVTDPCLRESVMKILHPNTQLADLIRTECSKESWQGIITRLWPNARYLDVIVTGAMAQYIKTLDFYSGGLPQVCTMYASSECYFGINLKPLCQPWEVSYTLMPNMAFFEFLPVYRNKNEDAGPVTTATEQPAELVDLVDVKVGQEYELVITTYSGLYRYRVGDVLRVTGFHNAAPQFQFVCRKNVMLSIDADKTDEAELHNAVMNAVKHLEPLEATLVEYTSYTDTSTIPGHYVLYWELRTSALPVPPSVFEDCCLTVEESLNSVYRQCRVADKSIGPLEIKVVEMGTFDKLMDYAISRGSSINQYKAARCVKFAPMVDILNSRVSASYFSPRCPKWTAGRTQWGALPR
modifications: Pinus pinaster
B3: NtGH3: GH3 protein, accession AAD32141 (protein, listed as Nicotiana tabacum)
chain: MAVDSVLSSPLGPPACEKDAKALQFIEEMTRNADAVQERVLNEILTRNSQTEYLKRFKLDGVSDRETFKNKIPVVTYEDLQPEIQRIANGDRSPILSAHPISEFLTSSGTSAGERKLMPTIKEELDRRQLLYSLLMPVMNLYVPGLDKGKGLYFLFIKSETKTPGGLLARPVLTSYYKSEHFKRRPHDPYNVYTSPNEAILCADSFQSMYTQMLCGLYEREQVLRLGAVFASGLVRAIRFLQLHWPQLAHDIRTGTLNPEITDPSICERMGLVMRPNPKLADFVTDECSKENWEGIITRIWPKTKYLDVIVTGAMAQYIPTLDYYSGGLPKACTMYAASECYFGLNLNPMCKPSEVSYTIMPNMGYFEFLPHDPNSSRDSTRNLVDLVDVEVGKEYELVITTYAGLYRYRVGDILRVTGFHNSAPQFHFVRRKNVLLSIDSDKTDEAELQRAVENASKLLKEFNTSVVEYTSYADTKTIPGHYVIYWELLMKDLNNSPSDEVLNKCCLAMEESLNTVYRQGRVACNSIGPLEIRVVKNGTFEELMDYAISRGASINQYKVPRCVSFAPILELLDSRVMSRHFSPSLPQWTPERRH
B4: GmGH3-21: GH3 protein, accession CAA42636 (protein)
chain: MAIATCDHDKNAKALQFIEDMTQNTESVQERVLAEILSQNSQTEYLKRFELNGATDRDTFKSKVPVVSYDDLKHDIHRIANGDRSPILCAHPISEFLTSSGTSAGERKLMPTIRQEMDRRQLIFSLPMPVMNQYVTDMDKGKALIFLFTKAEQKTPSGLVARPVSASMYKSDQFKNRPYDPYNVYTSPDEAILCPDSFQSMYTQMLCGLIMRHQVLRVGANFASGLLRSIHLLQLNWAQLSHDISTGTLNPKITDPAIKQRMTQILKPDPELAEFIVKECSGENWERIIPRIWPNTKYVEVVVTGAMAQYVPTLDYYSGGLPLASNIYGSSECFFGINLNPFCNPSDVSYTIMPNMGYFEFLPQDHDDASSSSGSSFTLSRLIDLDDVELGKSYEIVVTTYSGLCRYRVGDILRVTGFHNTAPQFSFVRRKNVLLSIDSDKTDEAELQNAVEKASVLLKEFKTSVVEYTSFADTKSIPGHYVIYWELLMKDSSNAPTTEALEQCCLTMEESLNAVYRQGRVADHSIGPLEIRVVKNGTFEELMDYAISRGASISQYKVPRCVTFTPITELLDSRVESVHFSPSEPHWTPERRR
modifications: Glycine max
B5: PtGH3-1: GH3 protein, accession EEE70316 (protein, listed as Populus trichocarpa)
chain: MAIESVLSPLGPPACEKDAKALQFIEDMTANVDLVQERVLKEILTSNAETEYLQKYHLNGATDRDSFKSKIPMVTYEDLQPQIQRIANGDKSPILSSHPISEFLTSSGTSAGERKLMPTIEEEMDRRQLLYSLLMPVMNLYVPGLDKGKGLYFYFIKAEAKTPGGLVARPVLTSYYKSKQFKTRPYDPYNVITSPNETILCVDSFQSMYSQMLCGLIMREEVLRVGAVFASGLLRAIRFLQLNWKELANDISTGSLNPKVTNPSIRECMAKILKPNQELAEFITKECSDENWERIITRIWPNTKYLDVIVTGAMAQYIPTLDYYSGGLPKPCTMYASSECFFGLNLRPMSEPSEVSYTIMPNMGYFEFLPHDPSAPAFSRESPPRLLDLADLEVGKEYELVITTYSGLNRYRVGDILLVTGFYNKAPQFRFVRRKNVLLSIESDKTDEAELQKAIDNASLLLREFNTSVVEYTSYAETKIIPGHYVIYWELLVKDPANSPTEEVLNQCCLAMEESLNSVYRQSRVADNSIGPLEIRVVKNGTFEELMDYAISRGASINQYKVPRCVSFTPIMELLDSRVVSKHFSPSVPHWTPERRS

assay: LC-MS assay of GH3 conjugation of 2,4-D with Asp or Glu; format: biochemical; settings: conjugation of 2,4-D with Asp by recombinant GH3 protein; 2,4-D-Asp product by LC-MS; 5 mM 2,4-D substrate
Method in brief: (§1)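 N-terminal His-tagged GH3 homologs, expressed in E. coli C41(DE3) and Ni-NTA purified, at 44 to 164 μg/mL incubated 3 h at 30 °C in 20 mM Tris-HCl pH 8.0, 5 mM MgCl2, 1 mM DTT, 5 mM ATP, 5 mM auxin (IAA, 2,4-D or dicamba) and 5 mM Asp or Glu. Conjugates quantified by LC-MS against standards after MeOH precipitation; kinetics from Michaelis-Menten fits of initial velocities.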

| Molecule | kcat (hrs−1) 2,4-D-Asp |
| --- | --- |
| B1 | 1.494 h⁻¹ |
| B2 | 0.379 h⁻¹ |
| B3 | 1.990 h⁻¹ |
| B4 | 27.468 h⁻¹ |
| B5 | 4.798 h⁻¹ |

same assay, conditions: conjugation of 2,4-D with Glu by recombinant GH3 protein; 2,4-D-Glu product by LC-MS; 5 mM 2,4-D substrate

| Molecule | kcat (hrs−1) 2,4-D-Glu |
| --- | --- |
| B1 | 0.122 h⁻¹ |
| B2 | 0.089 h⁻¹ |
| B3 | 0.804 h⁻¹ |
| B4 | 22.910 h⁻¹ |
| B5 | 0.181 h⁻¹ |

assay: LC-MS assay of GH3 conjugation of IAA with Asp or Glu; format: biochemical; settings: conjugation of IAA with Asp by recombinant GH3 protein; IAA-Asp product by LC-MS
Method in brief: as §1

| Molecule | kcat (hrs−1) IAA-Asp |
| --- | --- |
| B1 | 337.033 h⁻¹ |
| B2 | 656.761 h⁻¹ |
| B3 | 716.658 h⁻¹ |
| B4 | 1087.519 h⁻¹ |
| B5 | 900.907 h⁻¹ |

same assay, conditions: conjugation of IAA with Glu by recombinant GH3 protein; IAA-Glu product by LC-MS

| Molecule | kcat (hrs−1) IAA-Glu |
| --- | --- |
| B1 | 11.549 h⁻¹ |
| B2 | 51.037 h⁻¹ |
| B3 | 34.341 h⁻¹ |
| B4 | 1075.524 h⁻¹ |
| B5 | 39.695 h⁻¹ |
